Measurements from paper PMC11301059, “The origin of esterase activity of Parkinson's disease causative factor DJ-1 implied by evolutionary trace analysis of its prokaryotic homolog HchA” (The Journal of Biological Chemistry, 2024).
Residue numbers refer to the chain shown, from its start. Names may count otherwise.

Assays:
[1] = substrate: CC(=O)Oc1ccc([N+](=O)[O-])cc1; assay: pNP formation, A400, initial velocity, Michaelis-Menten fit; format: biochemical, Homo sapiens; settings: 50 mM sodium phosphate pH 7.0, 37 °C, 0.7 μM enzyme
Excerpt: pNP formation, A400, initial velocity, Michaelis-Menten fit on DJ-1

[2] = substrate: O=CC(=O)c1ccccc1; assay: PGO consumption, A250, initial velocity, Michaelis-Menten fit; format: biochemical, Homo sapiens; settings: 20 mM sodium phosphate pH 7.0, 37 °C
Excerpt: PGO consumption, A250, initial velocity, Michaelis-Menten fit on DJ-1

[3] = substrate: O=CC(=O)c1ccccc1; assay: as above; format: biochemical, Escherichia coli; settings: 20 mM sodium phosphate pH 7.0, 37 °C
Excerpt: PGO consumption, A250, initial velocity, Michaelis-Menten fit on HchA

[4] = substrate: CC(=O)Oc1ccc([N+](=O)[O-])cc1; assay: pNP formation, A400, initial velocity, Michaelis-Menten fit; format: biochemical, Escherichia coli; settings: 50 mM sodium phosphate pH 7.0, 37 °C, 1 μM enzyme
Excerpt: pNP formation, A400, initial velocity, Michaelis-Menten fit on HchA

B1: DJ-1 (Homo sapiens) (protein)
chain: MASKRALVILAKGAEEMETVIPVDVMRRAGIKVTVAGLAGKDPVQCSRDVVICPDASLEDAKKEGPYDVVVLPGGNLGAQNLSESAAVKEILKEQENRKGLIAAICAGPTALLAHEIGFGSKVTTHPLAKDKMMNGGHYTYSENRVEKDGLILTSRGPGTSFEFALAIVEALNGKEVAAQVKAPLVLKD
notes: N-terminal His-tag (pET28a), expressed in E. coli BL21(DE3)+RIL, Ni-NTA purified, tag removal not mentioned
Question: For B1, which Km [1] is on record?
Answer: The Km was 4.76 ± 1.25 × 10^-3 M.

Question: And the kcat [1]?
Answer: The kcat was 5.47 ± 0.935 s⁻¹.

Question: What about the kcat/Km [1] of the same protein?
Answer: The kcat/Km was 1180 ± 203 M⁻¹ s⁻¹.

Question: What about the Km ([2]; 2 μM enzyme) of the same protein?
Answer: Its Km is 5.22 ± 0.65 × 10^-5 M.

Question: What about the kcat ([2]; 2 μM enzyme) of the same protein?
Answer: The kcat was 0.12 ± 0.007 s⁻¹.

Question: And the kcat/Km ([2]; 2 μM enzyme)?
Answer: The kcat/Km was 2400 ± 229 M⁻¹ s⁻¹.

B2: DJ-1 (Homo sapiens; A107H) (protein)
chain: B1 chain with A107H
notes: as for B1
Question: What does the source list for B2?
Answer: Km ([2]; 0.3 μM enzyme): 6.44 ± 1.13 × 10^-4 M; kcat ([2]; 0.3 μM enzyme): 1.65 ± 0.127 s⁻¹; kcat/Km ([2]; 0.3 μM enzyme): 2600 ± 303 M⁻¹ s⁻¹

B3: HchA (Escherichia coli K-12) (protein)
chain: MTVQTSKNPQVDIAEDNAFFPSEYSLSQYTSPVSDLDGVDYPKPYRGKHKILVIAADERYLPTDNGKLFSTGNHPIETLLPLYHLHAAGFEFEVATISGLMTKFEYWAMPHKDEKVMPFFEQHKSLFRNPKKLADVVASLNADSEYAAIFVPGGHGALIGLPESQDVAAALQWAIKNDRFVISLCHGPAAFLALRHGDNPLNGYSICAFPDAADKQTPEIGYMPGHLTWYFGEELKKMGMNIINDDITGRVHKDRKLLTGDSPFAANALGKLAAQEMLAAYAG
notes: N-terminal His-tag (pET21a), expressed in E. coli BL21(DE3)+RIL, Ni-NTA purified, tag removal not mentioned; dimer
Question: Which results are given for B3?
Answer: Km ([3]; 0.3 μM enzyme): 1.49 ± 0.40 × 10^-4 M; kcat ([3]; 0.3 μM enzyme): 0.67 ± 0.053 s⁻¹; kcat/Km ([3]; 0.3 μM enzyme): 4730 ± 1250 M⁻¹ s⁻¹

B4: HchA (Escherichia coli K-12; D214A) (protein)
chain: B3 chain with D214A
notes: as for B3
Question: With B4 as the protein, how does the Km ([3]; 1.8 μM enzyme) read?
Answer: The Km was 2.55 ± 0.47 × 10^-5 M.

Question: And the kcat ([3]; 1.8 μM enzyme)?
Answer: Its kcat is 0.075 ± 0.005 s⁻¹.

Question: And the kcat/Km ([3]; 1.8 μM enzyme)?
Answer: The kcat/Km was 2980 ± 355 M⁻¹ s⁻¹.

B5: HchA (Escherichia coli K-12; H186A) (protein)
chain: B3 chain with H186A
notes: as for B3
Question: Which results are given for B5?
Answer: Km ([3]; 1.8 μM enzyme): 1.87 ± 0.24 × 10^-5 M; kcat ([3]; 1.8 μM enzyme): 0.0491 ± 0.004 s⁻¹; kcat/Km ([3]; 1.8 μM enzyme): 2640 ± 202 M⁻¹ s⁻¹; Km [4]: 4.76 ± 0.36 × 10^-3 M; kcat [4]: 3.11 ± 0.144 s⁻¹; kcat/Km [4]: 655 ± 19.4 M⁻¹ s⁻¹
